Numbered stars: 1 amine (or outer) side, 2 acyl side, 3 side chain; on linkers, the order of the positions; unused ones are H or OH. Square brackets hold non-standard residues; d marks the D form. Side chains are listed from the residue outwards. Ends that are not written are not given here. * marks the point of attachment. C18 diacid = O=C(O)CCCCCCCCCCCCCCCCC(=O)*; pY = N[C@@H](Cc1ccc(OP(=O)(O)O)cc1)C(=O)O; γGlu = O=C(O)[C@H](CCC(=O)[*:2])N[*:1]; AEEA = NCCOCCOCC(=O)O

Sequences and labels used below:
B1: N^α-([Leu^27]Glucagonyl) … (peptide)
peptide: HSQGTFTSDYSKYLDSRRAQDFVQWLLNTK
modifications: C-terminal Lys (position 30): N-epsilon acylated with the substituent printed in the name
B2: N^α-([His^24,Leu^27]-Glucagonyl)-N^ε[(4S)-4-carboxy-4-[[(4S)-4-carboxy-4-[[2-[2-[2-[[2-[2-[2-[[(4S)-4-carboxy-4-(17-carboxyheptadecanoylamino)butanoyl]amino]eth … (peptide)
peptide: HSQGTFTSDYSKYLDSRRAQDFVHWLLNTK
modifications: C-terminal Lys (position 30): N-epsilon acylated with the substituent printed in the name

The target of the first assay is T1, glucagon receptor (UniProt P47871 26-477, limits assumed). The assay can be described thus: cell-based or functional assay.
T1 sequence (P47871 26-477 limits assumed): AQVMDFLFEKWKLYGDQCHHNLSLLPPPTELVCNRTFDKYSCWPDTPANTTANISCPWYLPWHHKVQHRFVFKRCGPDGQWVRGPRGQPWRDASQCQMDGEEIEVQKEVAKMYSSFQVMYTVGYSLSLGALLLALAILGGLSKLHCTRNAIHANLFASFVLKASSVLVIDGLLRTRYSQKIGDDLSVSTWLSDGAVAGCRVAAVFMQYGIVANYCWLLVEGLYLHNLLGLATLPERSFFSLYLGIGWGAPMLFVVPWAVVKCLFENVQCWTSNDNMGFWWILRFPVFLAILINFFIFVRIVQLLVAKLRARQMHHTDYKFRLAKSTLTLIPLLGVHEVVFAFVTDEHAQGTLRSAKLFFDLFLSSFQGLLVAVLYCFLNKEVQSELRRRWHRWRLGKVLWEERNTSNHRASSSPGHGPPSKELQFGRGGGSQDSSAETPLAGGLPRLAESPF
With HSQGTFTSDYSKYLDSRRAQDFVQK([AEEA-AEEA-γGlu-C18 diacid])LLNT, the “Assay (I) Glucagon [EC50]” value was 0.155 nM.

With HSQGTFTSDYSKYLDSRRAQDFVK([AEEA-AEEA-γGlu-C18 diacid])HLLNT, the “Assay (I) Glucagon [EC50]” value is 0.194 nM.

Take HSQGTFTSDYSKYLDSRQAQEFVK([AEEA-AEEA-γGlu-C18 diacid])WLLNT: the “Assay (I) Glucagon [EC50]” value turned out to be 0.15 nM.

With HSQGTFTSDYSKYLDSRRAQDFVQWLLK([γGlu-γGlu-AEEA-AEEA-γGlu-C18 diacid])T, the “Assay (I) Glucagon [EC50]” value was 0.055 nM.

Regarding HSQGTFTSDYSKYLDSRRAQDFVK([AEEA-AEEA-γGlu-C18 diacid])[pY]LLNT, the “Assay (I) Glucagon [EC50]” value is 0.171 nM.

B1: the “Assay (I) Glucagon [EC50]” value stood at 0.056 nM.

For HSQGTFTSDYSKYLDSRRAQDFVQWLLNK([γGlu-γGlu-AEEA-AEEA-γGlu-C18 diacid]), the “Assay (I) Glucagon [EC50]” value turned out to be 0.095 nM.

In the case of HSQGTFTSDYSKYLDSKKAQEFVK([AEEA-AEEA-γGlu-C18 diacid])WLLST, the “Assay (I) Glucagon [EC50]” value is 0.009 nM.

Take HSQGTFTSDYSKYLDSRRAQEFVK([AEEA-AEEA-γGlu-C18 diacid])RLLNT: the “Assay (I) Glucagon [EC50]” value amounted to 0.074 nM.

On to HSQGTFTSDYSKYLDK([AEEA-AEEA-γGlu-C18 diacid])KRAQEFVQWLLNT, for which the “Assay (I) Glucagon [EC50]” value stood at 0.02 nM.

As for HSQGTFTSDYSKYLDSKRAQEFVK([AEEA-AEEA-γGlu-C18 diacid])WLLNT, the “Assay (I) Glucagon [EC50]” value came to 0.022 nM.

Turning to HSQGTFTSDYSKYLDK([AEEA-AEEA-γGlu-C18 diacid])KKAQEFVQWLLNT, the “Assay (I) Glucagon [EC50]” value worked out at 0.02 nM.

On to HSQGTFTSDYSKYLDSRRAQDFVQWLLK([AEEA-AEEA-γGlu-C18 diacid])T, for which the “Assay (I) Glucagon [EC50]” value was 0.022 nM.

For another assay, the target named is T1, glucagon receptor. The assay is described as follows: cell-based or functional assay. The source holds these as a separate data set.
Consider HSQGTFTSDYSK([γGlu-γGlu-AEEA-AEEA-γGlu-C18 diacid])YLDSRRAQDFVQWLLNP, for which the “Assay (I) Glucagon [EC50]” value came out at 1.58 nM.

For the molecule HSQGTFTSDYSKYLDSRRAQDFVQWLLK([γGlu-γGlu-γGlu-C18 diacid])T, the “Assay (I) Glucagon [EC50]” value amounted to 0.141 nM.

Turning to HSQGTFTSDYSKYLDSRRAQDFVK([γGlu-AEEA-AEEA-γGlu-γGlu-C18 diacid])WLLST, the “Assay (I) Glucagon [EC50]” value is 0.106 nM.

Regarding HSQGTFTSDYSRYLDSRRAQDFVQWLK([γGlu-γGlu-AEEA-AEEA-γGlu-C18 diacid])NP, the “Assay (I) Glucagon [EC50]” value turned out to be 2.11 nM.

As for HSQGTFTSDYSKYLDK([γGlu-γGlu-AEEA-AEEA-γGlu-C18 diacid])RRAQEFVQRLLNT, the “Assay (I) Glucagon [EC50]” value is 0.45 nM.

With HSQGTFTSDYSKYLDSRRAQDFVQWLK([γGlu-γGlu-AEEA-AEEA-γGlu-C18 diacid])NP, the “Assay (I) Glucagon [EC50]” value stood at 1.17 nM.

Take HSQGTFTSDYSKYLDK([γGlu-γGlu-AEEA-AEEA-γGlu-C18 diacid])RRAQDFVQWLLNT: the “Assay (I) Glucagon [EC50]” value was determined as 0.105 nM.

Turning to HSQGTFTSDYSKYLDSRRAQDFVQWLLK([γGlu-γGlu-AEEA-AEEA-γGlu-C18 diacid])TP, the “Assay (I) Glucagon [EC50]” value stood at 0.128 nM.

On to HSQGTFTSDYSKYLDSRRAEDFVK([γGlu-γGlu-AEEA-AEEA-γGlu-C18 diacid])WLLST, for which the “Assay (I) Glucagon [EC50]” value stood at 0.307 nM.

As to HSQGTFTSDYSKYLDSRRAQDFVQWLLK([γGlu-AEEA-AEEA-γGlu-γGlu-C18 diacid])T, the “Assay (I) Glucagon [EC50]” value turned out to be 0.093 nM.

As for HSQGTFTSDYSKYLDK([AEEA-AEEA-γGlu-γGlu-γGlu-C18 diacid])RRAQDFVQWLLNT, the “Assay (I) Glucagon [EC50]” value stood at 0.081 nM.

Consider HSQGTFTSEYSKYLDSRRAQDFVK([γGlu-γGlu-AEEA-γGlu-C18 diacid])WLLST, for which the “Assay (I) Glucagon [EC50]” value is 2.2 nM.

Regarding HSQ[dF]TFTSDYSKYLDSRRAQDFVK([γGlu-γGlu-AEEA-AEEA-γGlu-C18 diacid])WLLST, the “Assay (I) Glucagon [EC50]” value turned out to be 0.044 nM.

Regarding HSQGTFTSDYSKYLDSRRAQEFVK([γGlu-γGlu-AEEA-γGlu-C18 diacid])WLLST, the “Assay (I) Glucagon [EC50]” value is 0.053 nM.

As to HSQGTFTSDYSKYLDK([γGlu-AEEA-AEEA-γGlu-γGlu-C18 diacid])RRAQDFVQWLLNT, the “Assay (I) Glucagon [EC50]” value was found to be 0.122 nM.

With HSQGTFTSDYSKYLDSRRAQDFVQK([γGlu-γGlu-AEEA-AEEA-γGlu-C18 diacid])LLNT, the “Assay (I) Glucagon [EC50]” value was determined as 0.988 nM.

Consider HSQGTFTSDYSKYLDSRRAEEFVK([γGlu-γGlu-AEEA-γGlu-C18 diacid])WLLST, for which the “Assay (I) Glucagon [EC50]” value worked out at 0.12 nM.

As for HSQGTFTSDYSKYLDSRRAQDFVQWLLK([γGlu-γGlu-AEEA-AEEA-γGlu-C18 diacid])T, the “Assay (I) Glucagon [EC50]” value turned out to be 0.055 nM.

As for B1, the “Assay (I) Glucagon [EC50]” value stood at 0.056 nM.

Consider HSQGTFTSDYSRYLDSRRAQDFVK([γGlu-γGlu-AEEA-AEEA-γGlu-C18 diacid])WLLNT, for which the “Assay (I) Glucagon [EC50]” value is 0.127 nM.

As for HSQGTFTSDYSKYLDSRRAQDFVQWLLNK([γGlu-γGlu-AEEA-AEEA-γGlu-C18 diacid]), the “Assay (I) Glucagon [EC50]” value amounted to 0.095 nM.

Take HSQGTFTSDYSKYLDSRRAQDFVK([AEEA-AEEA-γGlu-γGlu-γGlu-C18 diacid])WLLST: the “Assay (I) Glucagon [EC50]” value worked out at 0.115 nM.

For HSQGTFTSDYSKYLDSRRAQDFVQWLLK([γGlu-γGlu-AEEA-AEEA-γGlu-C18 diacid])P, the “Assay (I) Glucagon [EC50]” value was found to be 0.189 nM.

On to HSQGTFTSDYSKYLDSRRAQDFVQWLLK([AEEA-AEEA-γGlu-γGlu-γGlu-C18 diacid])T, for which the “Assay (I) Glucagon [EC50]” value was found to be 0.116 nM.

HSQGTFTSDYSKYLDSRRAQDFVKWLLNTP (Lys 24: N-epsilon acylated with the substituent printed in the name): the “Assay (I) Glucagon [EC50]” value amounted to 0.142 nM.

With HSQGTFTSDYSKYLDSRRAK([γGlu-γGlu-AEEA-AEEA-γGlu-C18 diacid])DFVQWLLNT, the “Assay (I) Glucagon [EC50]” value stood at 0.058 nM.

For HSQGTFTSDYSKYLDSRRAQDFVK([γGlu-γGlu-γGlu-C18 diacid])WLLST, the “Assay (I) Glucagon [EC50]” value turned out to be 0.094 nM.

For HSQGTFTSDYSKYLDSRRAQDFVK([γGlu-γGlu-AEEA-AEEA-γGlu-C18 diacid])WLLNP, the “Assay (I) Glucagon [EC50]” value stood at 0.156 nM.

For the molecule B2, the “Assay (I) Glucagon [EC50]” value is 0.1 nM.

The values are drawn from patent US20130143798A1 (Novo Nordisk, published 2013).
